PMC2270275, “Thermal dependency of RAG1 self-association properties” (BMC Biochemistry, 2008)

Molecular target: the molecule itself
Assay: SEC-MALS; MALLS-SEC of purified GST-core RAG2 (0.01-0.03 mg), kept at 4°C before SEC; Superdex 200; 25 mM Tris pH 8.0, 150 mM KCl, 2 mM dithiothreitol; 40-200 nM in Peak 2

B1: GST-core RAG2 (domain or fragment, UniProt P21784 1-387, looked up)
chain: MSLQMVTVGHNIALIQPGFSLMNFDGQVFFFGQKGWPKRSCPTGVFHFDIKQNHLKLKPAIFSKDSCYLPPLRYPATCSYKGSIDSDKHQYIIHGGKTPNNELSDKIYIMSVACKNNKKVTFRCTEKDLVGDVPEPRYGHSIDVVYSRGKSMGVLFGGRSYMPSTQRTTEKWNSVADCLPHVFLIDFEFGCATSYILPELQDGLSFHVSIARNDTVYILGGHSLASNIRPANLYRIRVDLPLGTPAVNCTVLPGGISVSSAILTQTNNDEFVIVGGYQLENQKRMVCSLVSLGDNTIEISEMETPDWTSDIKHSKIWFGSNMGNGTIFLGIPGDNKQAMSEAFYFYTLRCSEEDLSEDQKIVSNSQTSTEDPGDSTPFEDSEEFCFS
notes: RAG2 core region; core RAG2 portion printed as 42.6 kDa; Predicted monomer mass 68.9 kDa; The authors put the dimeric state down to the GST moiety, which is known to dimerize; also called core RAG2 fused to glutathione S-transferase; GST-RAG2
stoichiometry N: 2
